In the Immune Epitope Database (IEDB):
pIC50, pKd: −log10 of the molar value. Blank lines part the entries; values can stand above or below the sequence they belong to.

Experiments:
[1] = target: HLA-A*02:01; test: IEDB peptide-MHC binding, purified MHC/competitive/radioactivity; ≥ and ≤ were set here for values at or beyond the usual limits of such assays
[2] = target: HLA-C*14:02; test: IEDB peptide-MHC binding, purified MHC/direct/fluorescence; filed as Kd, often an IC50 or EC50 that approximates it; ≥ and ≤ were set here for values at or beyond the usual limits of such assays; conditions: source organism: Salmonella enterica subsp. enterica serovar Typhi str. CT18
[3] = target: HLA-B*40:01; test: IEDB peptide-MHC binding, purified MHC/competitive/fluorescence; filed as Kd, often an IC50 or EC50 that approximates it; ≥ and ≤ were set here for values at or beyond the usual limits of such assays
[4] = target: HLA-C*05:01; test: IEDB peptide-MHC binding, purified MHC/direct/fluorescence; filed as Kd, often an IC50 or EC50 that approximates it; ≥ and ≤ were set here for values at or beyond the usual limits of such assays; conditions: source organism: Salmonella enterica subsp. enterica serovar Typhi str. CT18
[5] = target: HLA-B*51:01; test: IEDB peptide-MHC binding, purified MHC/competitive/fluorescence; filed as Kd, often an IC50 or EC50 that approximates it; ≥ and ≤ were set here for values at or beyond the usual limits of such assays; conditions: source organism: Salmonella enterica subsp. enterica serovar Typhi
[6] = target: HLA-B*07:02; test: as above; conditions: source organism: Salmonella enterica subsp. enterica serovar Typhi
[7] = target: HLA-B*15:01; test: as above
[8] = target: HLA-A*31:01; test: IEDB peptide-MHC binding, purified MHC/direct/fluorescence; filed as Kd, often an IC50 or EC50 that approximates it; ≥ and ≤ were set here for values at or beyond the usual limits of such assays
[9] = target: HLA-A*11:01; test: as above; conditions: source organism: Vibrio parahaemolyticus
[10] = target: HLA-B*39:01; test: as above
[11] = target: HLA-A*26:01; test: as above; conditions: source organism: Vibrio parahaemolyticus
[12] = target: HLA-B*15:01; test: as above; conditions: source organism: Vibrio parahaemolyticus
[13] = target: HLA-A*01:01; test: as above; conditions: source organism: Vibrio parahaemolyticus
[14] = target: HLA-A*03:01; test: as above; conditions: source organism: Vibrio parahaemolyticus
[15] = target: HLA-B*07:02; test: as above
[16] = target: HLA-B*35:01; test: as above
[17] = target: HLA-A*02:01; test: as above
[18] = target: HLA-B*27:05; test: as above; conditions: source organism: Vibrio parahaemolyticus
[19] = target: HLA-A*69:01; test: as above
[20] = target: HLA-B*40:01; test: as above; conditions: source organism: Vibrio parahaemolyticus
[21] = target: HLA-B*58:01; test: as above; conditions: source organism: Vibrio parahaemolyticus
[22] = target: HLA-B*08:01; test: as above; conditions: source organism: Vibrio parahaemolyticus
[23] = target: HLA-B*44:02; test: as above; conditions: source organism: Vibrio parahaemolyticus
[24] = target: HLA-A*02:12; test: IEDB peptide-MHC binding, purified MHC/competitive/fluorescence; filed as Kd, often an IC50 or EC50 that approximates it; ≥ and ≤ were set here for values at or beyond the usual limits of such assays; conditions: source organism: Haemophilus influenzae 22.1-21
[25] = target: HLA-A*02:11; test: as above; conditions: source organism: Haemophilus influenzae 22.1-21
[26] = target: HLA-A*29:02; test: as above; conditions: source organism: Homo sapiens
[27] = target: HLA-A*01:01; test: as above; conditions: source organism: Homo sapiens
[28] = target: HLA-B*15:09; test: IEDB peptide-MHC binding, purified MHC/direct/fluorescence; filed as Kd, often an IC50 or EC50 that approximates it; ≥ and ≤ were set here for values at or beyond the usual limits of such assays
[29] = target: HLA-C*06:02; test: as above; conditions: source organism: Vaccinia virus GLV-1h68
[30] = target: HLA-A*68:01; test: IEDB peptide-MHC binding, purified MHC/competitive/radioactivity; filed as Kd, often an IC50 or EC50 that approximates it; ≥ and ≤ were set here for values at or beyond the usual limits of such assays; conditions: source organism: Vaccinia virus WR
[31] = target: HLA-A*31:01; test: as above; conditions: source organism: Vaccinia virus WR
[32] = target: HLA-A*11:01; test: as above; conditions: source organism: Vaccinia virus WR
[33] = target: HLA-A*33:01; test: as above; conditions: source organism: Vaccinia virus WR
[34] = target: HLA-A*03:01; test: as above; conditions: source organism: Vaccinia virus WR
[35] = target: HLA-B*51:01; test: as above; conditions: source organism: Vaccinia virus WR
[36] = target: HLA-B*07:02; test: as above; conditions: source organism: Vaccinia virus WR
[37] = target: HLA-B*35:01; test: as above; conditions: source organism: Vaccinia virus WR
[38] = target: HLA-B*53:01; test: as above; conditions: source organism: Vaccinia virus WR
[39] = target: HLA-B*54:01; test: as above; conditions: source organism: Vaccinia virus WR
[40] = target: HLA-A*02:01; test: IEDB peptide-MHC binding, purified MHC/competitive/fluorescence; filed as Kd, often an IC50 or EC50 that approximates it; ≥ and ≤ were set here for values at or beyond the usual limits of such assays
[41] = target: HLA-B*39:01; test: as above; conditions: source organism: Yersinia pestis Nepal516
[42] = target: HLA-A*24:03; test: IEDB peptide-MHC binding, purified MHC/direct/fluorescence; filed as Kd, often an IC50 or EC50 that approximates it; ≥ and ≤ were set here for values at or beyond the usual limits of such assays; conditions: source organism: Pseudomonas sp. KIE171
[43] = target: HLA-A*30:01; test: as above; conditions: source organism: Vibrio parahaemolyticus
[44] = source organism: Escherichia coli B171
[45] = source organism: Vibrio parahaemolyticus
[46] = source organism: Haemophilus influenzae
[47] = source organism: Yersinia pestis Nepal516
[48] = source organism: Pseudomonas sp. KIE171

Sequence: LNTSAGFPYV
- pIC50 ([1]; source organism: Rhinovirus C): 6.30

Sequence: AETLMAQPF
- pKd [2]: 5.64
- pKd ([3]; source organism: Salmonella enterica subsp. enterica serovar Typhi): 7.91

- pIC50 ([1]; source organism: Homo sapiens): 7.38
Sequence: ALDGGNKHFL

Sequence: FPPGTSLTI
- pKd [4]: ≤ 4.70
- pKd [5]: 6.25
- pKd [6]: 6.73

- pKd [7, 44]: ≤ 4.70
- pKd [3, 44]: 8.16
Sequence: AELRLVHEL

Sequence: GLIDIAPHQI
- pIC50 ([1]; source organism: Mycobacterium tuberculosis H37Ra): 7.31

Sequence: NSDPEFNVL
- pKd [8, 45]: ≤ 4.70
- pKd [9]: ≤ 4.70
- pKd ([10]; source organism: Vibrio parahaemolyticus AQ3810): 7.89
- pKd [11]: ≤ 4.70
- pKd [12]: ≤ 4.70
- pKd [13]: 6.41
- pKd [14]: ≤ 4.70
- pKd [15, 45]: ≤ 4.70
- pKd [16, 45]: 6.68
- pKd [17, 45]: ≤ 4.70
- pKd [18]: ≤ 4.70
- pKd [19, 45]: ≤ 4.70
- pKd [20]: 5.30
- pKd [21]: ≤ 4.70
- pKd [22]: ≤ 4.70
- pKd [23]: ≤ 4.70

- pKd [8, 46]: 6.25
- pKd [17, 46]: 6.85
- pKd [19, 46]: 6.26
- pKd [24]: 7.35
- pKd [25]: 8.39
Sequence: RFLEDYFGV

- pKd [26]: 8.89
- pKd [27]: 8.15
Sequence: SVDGFRASY

- pKd ([28]; source organism: Escherichia coli O157:H7 str. EC869): 8.70
Sequence: HHSLTHHQL

Sequence: LMYDIINSV
- pKd [29]: 5.35
- pKd [30]: ≤ 4.11
- pKd [31]: 5.34
- pKd [32]: 5.89
- pKd [33]: ≤ 4.69
- pKd [34]: ≤ 4.45
- pKd [35]: ≤ 4.26
- pKd [36]: ≤ 4.11
- pKd [37]: ≤ 4.11
- pKd [38]: ≤ 4.11
- pKd [39]: 6.59
- pKd ([40]; source organism: Vaccinia virus GLV-1h68): 9.22

Sequence: SQMGLSCAL
- pKd [41]: 8.46
- pKd [7, 47]: 7.01
- pKd [40, 47]: 8.34
- pKd [3, 47]: 6.25

Sequence: VLSEWLPVT
- pIC50 ([1]; source organism: Rift Valley fever virus): 7.82

Sequence: EHIPTMKIF
- pKd ([10]; source organism: Camelpox virus M-96): 5.87
- pKd ([28]; source organism: Variola virus): 6.52

- pKd [42]: 4.98
- pKd [15, 48]: 5.24
- pKd [16, 48]: 8.48
Sequence: VPWQEKTAS

- pIC50 ([1]; source organism: Homo sapiens): 6.66
Sequence: GLLGSPVRA

Sequence: VMETENALF
- pKd [8, 45]: ≤ 4.70
- pKd [9]: ≤ 4.70
- pKd [43]: ≤ 4.35
- pKd [11]: ≤ 4.70
- pKd [12]: 6.52
- pKd [13]: 5.30
- pKd [14]: ≤ 4.70
- pKd [16, 45]: 6.37
- pKd [17, 45]: ≤ 4.70
- pKd [18]: ≤ 4.70
- pKd [19, 45]: ≤ 4.70
- pKd [20]: ≤ 4.70
- pKd [22]: ≤ 4.70
- pKd [23]: ≤ 4.70
